Measurements from US20220325265A1, “GLUCOCEREBROSIDASE MUTANTS” (Hoffmann-la Roche Inc., priority 2019, published 2022).
Residue numbers refer to the chain shown, from its start. In names and notes the source's numbering stands.

B1: I5N: recombinant human β-glucocerebrosidase variant R495H/I5N, S2 cells; Seq. Id. No. 4 (protein, listed as Homo sapiens)
chain: ARPCNPKSFGYSSVVCVCNATYCDSFDPPTFPALGTFSRYESTRSGRRMELSMGPIQANHTGTGLLLTLQPEQKFQKVKGFGGAMTDAAALNILALSPPAQNLLLKSYFSEEGIGYNIIRVPMASCDFSIRTYTYADTPDDFQLHNFSLPEEDTKLKIPLIHRALQLAQRPVSLLASPWTSPTWLKTNGAVNGKGSLKGQPGDIYHQTWARYFVKFLDAYAEHKLQFWAVTAENEPSAGLLSGYPFQCLGFTPEHQRDFIARDLGPTLANSTHHNVRLLMLDDQRLLLPHWAKVVLTDPEAAKYVHGIAVHWYLDFLAPAKATLGETHRLFPNTMLFASEACVGSKFWEQSVRLGSWDRGMQYSHSIITNLLYHVVGWTDWNLALNPEGGPNWVRNFVDSPIIVDITKDTFYKQPMFYHLGHFSKFIPEGSQRVGLVASQKNDLDAVALMHPDGSAVVVVLNRSSKDVPLTIKDPAVGFLETISPGYSIHTYLWHRQ
notes: recombinant human β-glucocerebrosidase variant R495H/I5N, S2 cells; Id; No. 4
B2: imiglucerase (protein, UniProt P04062 40-536, looked up, variant R495H)
Lysosomal acid …: B1 chain with N5I
modifications: imiglucerase; CHO-produced
notes: Commercially available Cerezyme (imiglucerase, Genzyme), hGCase R495H produced in CHO cells

Key:
hGCase = experiment: Inhibition of hGCase using isofagomine (IFG), IC50 determination; format: biochemical, human; conditions: reversible inhibitor isofagomine on the named hGCase variant; 25 nM protein, 10 min pre-incubation at RT, 20 μM res-β-glc
Protocol: IFG is a competitive, reversible inhibitor of hGCase, interacting with the active pocket of the enzyme (Powe et al., 2006).
To calculate the IC50, a concentration range of 0.002-100 μM IFG was tested. IFG was prepared with a stock concentration of 1 mM in DMSO. The final enzyme concentration was 25 nM. After adding the inhibitor to the enzyme, the solution was pre-incubated for 10 min at RT before adding the substrate (20 μM) for the activity measurement.
The evaluation and IC50 determination were done using GraphPad Prism7. hGCase activity with no inhibitor added was set to 100% relative enzyme activity. In case of evaluating the raw data via GraphPadPrism7, the applied inhibitor concentrations were first transformed to log 10×-values plottet on the x-axis. Further, the raw data measured with the activity assay in RFU was normalized to the highest activity value within one data set (equals 100%). 100% signal was defined as 10-12 μM IFG (=no inhibitor added). Data points were fitted and IC50 values were determined using log(inhibitor) vs. response-variable slope (four parameters) (GraphPadPrism7) following equation 9: […]
To determine whether the active binding site of an enzyme is compromised or altered, IC50 values were calculated for active site inhibitor and compared. In this work, the natural occurring GCase inhibitor isofagomine (IFG) and conditurol-β-epoxide (CBE) were used. IFG is known as a reversible inhibitor, interacting with the active site of the GCase enzyme, whereas CBE is an irreversible inhibitor of GCase (Powe et al., 2006). The IC50 of an enzyme is defined as the concentration of an inhibitor, where the response, in this case the enzyme activity, is reduced by half (Kalliokoski et al., 2013). Both assays were conducted as described in section 2.5.6. The inhibitor profiles of M53T/P55T using IFG and CBE as well as the IC50 profiles of all residual mutants combined are shown in FIG. 4.
The raw data was plotted by transforming the applied IFG/CBE concentration to a logarithmic scale (x-axis, FIG. 4) and by normalizing the activity signal with highest signal of each data set to 100% (defined with apparent inhibitor concentration of 10-12 μM, equal to no inhibitor). IC50 values were calculated using GraphPad Prism7 following equation 9.

[1] = Heat inactivation at 55° C., residual GCase activity of purified protein; format: physicochemical; conditions: for residual GCase activity after heat inactivation: 55° C. waterbath, 50 nM protein, initial activity = 100%
Protocol: For all further GCase characterization experiments including the activity assay, 20 μM substrate concentration, 30-40 min incubation time and protein concentrations ranging from 25-100 nM were set as final assay settings to ensure measurements in the linear range. The overall DMSO concentration within the assay was kept at 0.5% (v/v) or even below, since DMSO influences the fluorescent signal with higher concentrations (experimentally tested, data not shown; confirmed by (Urban et al., 2008). Therefore, GCase activity buffer+1% (v/v) DMSO was also used for dilutions (table 2.9). The plate reader SpectraMax i3 (Molecular Devices) including the analysis software SoftMax Pro 6.4 was used for all activity measurements within this work. The program settings were kept the same for all activity runs: kinetic run, measurement temperature: 37° C., PMT Gain: high; flashes per read: 6; read height: 0.73305 mm from plate.
Another approach to test the mutants for thermal stability is the irreversible heat inactivation at 55° C. (Futami et al., 2017; Zale & Klibanov, 1986). As initial screening to select for most promising candidates, this thermal stability approach was chosen (section 3.1.1). For this, supernatant samples of each construct were taken from the 30 ml S2 cell cultures, respectively (section 2.2). The protein concentration was not adjusted. The samples were incubated for 40 min in total at 55° C. (PCR Cycler Mastercycler gradient, Eppendorf) using PCR plates (FrameStar®96 well skirted PCR plate, 4titude Ltd.). Samples were taken after 5, 7, 10, 15, 20, 30 and 40 min for residual activity measurements. The activity assay was performed as described in section 2.3.5. The initial activity of each mutant was set to 100% before heating. Residual activities were calculated in regard to the initial activity. Data points were fitted using the one phase decay fit by GraphPad Prism7 following equation 3: […]
For the heat inactivation experiment of purified protein (see section 3.3.3), hGCase protein samples were prepared with a final concentration of 50 nM, diluted in hGCase activity buffer, pH 6.0 (table 2.9) and incubated for 5 and 10 minutes in the waterbath (Julabo 5A, Julabo) at 55° C.
The second approach was aimed to test residual GCase activity after thermal inactivation at a fixed temperature. With this additional approach, the focus was set on activity-based changes with increased incubation time (Futami et al., 2017; Zale & Klibanov, 1986). Here, samples were incubated for 5 and 10 minutes in the waterbath at 55° C. Residual GCase activities were measured with the initial activity set to 100% (before heating). FIG. 2 depicts calculated residual activities for tested mutants after incubation.

| Molecule | IC50 (hGCase) [nM] | residual GCase activity after heat inactivation ([1]; 5 min incubation) [%] | residual GCase activity after heat inactivation ([1]; 10 min incubation) [%] | residual activities after 5 and 10 min of incubation (in words) ([1]; 55° C., compared to R495HS2) |
| --- | --- | --- | --- | --- |
| B1 | 26 ± 3 | 31 | 16 |  |
| B2 | 27 ± 6 |  |  | rapidly lose its initial activity but retained residual activity with further incubation |
